How the values were obtained:
HeLa Kyoto [1] = assay: solubility in G1/S (NP-40 vs SDS abundance) (log2 ratio); higher = more soluble; conditions: cell cycle stage: G1/S
HeLa Kyoto [2] = assay: melting temperature (median over replicates), in situ; higher = more thermally stable
HeLa Kyoto [3] = assay: solubility change mitosis vs G1/S (difference of NP-40 vs SDS log2 ratios) (log2 ratio difference); higher = more soluble in mitosis
HeLa Kyoto [4] = assay: thermal stability score vs G1/S (z-score of summed log2 fold changes over temperatures); higher = more thermally stable than in G1/S
[5] = cell cycle stage: early G1 (4.5 h after nocodazole release)
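Wherever melting temperature (median over replicates), in situ is given: HeLa Kyoto cells synchronized by double thymidine or nocodazole block, proteins quantified by TMT10plex mass spectrometry, three independent biological replicates.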
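Wherever solubility change mitosis vs G1/S (difference of NP-40 vs SDS log2 ratios) is given: synchronized HeLa Kyoto cells (double thymidine block for G1/S, nocodazole release for mitosis), protein amounts in NP-40 versus SDS lysates quantified by mass spectrometry, three biological replicates.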
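Wherever solubility in G1/S (NP-40 vs SDS abundance) is given: HeLa Kyoto cells arrested at G1/S by double thymidine block, proteins quantified by TMT10plex mass spectrometry in mild NP-40 versus SDS extracts, three biological replicates.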
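Wherever thermal stability score vs G1/S (z-score of summed log2 fold changes over temperatures) is given: synchronized HeLa Kyoto cells, proteins quantified by TMT10plex mass spectrometry, three biological replicates, mitosis taken 0.5 h after nocodazole release, G1/S directly after double thymidine block.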

## MTTQQIDLQGPGPWGFRLVGGKDFEQPLAISRVTPGSKAALANLCIGDVITAIDGENTSNMTHLEAQNRIKGCTDNLTLTVARSEHKVWSPLVTEEGKRHPYKMNLASEPQEVLHIGSAHNRSAMPFTASPASSTTARVITNQYNNPAGLYSSENISNFNNALESKTAASGVEANSRPLDHAQPPSSLVIDKESEVYKMLQEKQELNEPPKQSTSFLVLQEILESEEKGDPNKPSGFRSVKAPVTKVAASIGNAQKLPMCDKCGTGIVGVFVKLRDRHRHPECYVCTDCGTNLKQKGHFFVEDQIYCEKHARERVTPPEGYEVVTVFPK [PDLIM1]
HeLa Kyoto [1]
  solubility in G1/S (log2): 0.455
HeLa Kyoto [2]; cell cycle stage: G1/S
  melting temperature: 55.6 °C
HeLa Kyoto [2]; cell cycle stage: mitosis
  melting temperature: 56 °C
HeLa Kyoto [3]
  solubility change mitosis (log2): 0.147
HeLa Kyoto [4]; [5]
  thermal stability score: -1.51
HeLa Kyoto [4]; cell cycle stage: mitosis
  thermal stability score: -0.369

## MSIFPKISLRPEVENYLKEGFMNKEIVTALGKQEAERKFETLLKHLSHPPSFTTVRVNTHLASVQHVKNLLLDELQKQFNGLSVPILQHPDLQDVLLIPVIGPRKNIKKQQCEAIVGAQCGNAVLRGAHVYAPGIVSASQFMKAGDVISVYSDIKGKCKKGAKEFDGTKVFLGNGISELSRKEIFSGLPELKGMGIRMTEPVYLSPSFDSVLPRYLFLQNLPSALVSHVLNPQPGEKILDLCAAPGGKTTHIAALMHDQGEVIALDKIFNKVEKIKQNALLLGLNSIRAFCFDGTKAVKLDMVEDTEGEPPFLPESFDRILLDAPCSGMGQRPNMACTWSVKEVASYQPLQRKLFTAAVQLLKPEGVLVYSTCTITLAENEEQVAWALTKFPCLQLQPQEPQIGGEGMRGAGLSCEQLKQLQRFDPSAVPLPDTDMDSLREARREDMLRLANKDSIGFFIAKFVKCKST [NSUN6]
HeLa Kyoto [1]
  solubility in G1/S (log2): 0.29
HeLa Kyoto [2]; cell cycle stage: G1/S
  melting temperature: 51.8 °C
HeLa Kyoto [2]; cell cycle stage: mitosis
  melting temperature: 51.4 °C
HeLa Kyoto [3]
  solubility change mitosis (log2): -0.179
HeLa Kyoto [4]; [5]
  thermal stability score: -0.273
HeLa Kyoto [4]; cell cycle stage: mitosis
  thermal stability score: 0.177

## MSSGAASGTGRGRPRGGGPGPGDPPPSETHKLVVVGGGGVGKSALTIQFIQSYFVSDYDPTIEDSYTKICSVDGIPARLDILDTAGQEEFGAMREQYMRAGHGFLLVFAINDRQSFNEVGKLFTQILRVKDRDDFPVVLVGNKADLESQRQVPRSEASAFGASHHVAYFEASAKLRLNVDEAFEQLVRAVRKYQEQELPPSPPSAPRKKGGGCPCVLL [RRAS]
HeLa Kyoto [1]
  solubility in G1/S (log2): 0.28
HeLa Kyoto [2]; cell cycle stage: G1/S
  melting temperature: 56.1 °C
HeLa Kyoto [2]; cell cycle stage: mitosis
  melting temperature: 56 °C
HeLa Kyoto [3]
  solubility change mitosis (log2): -0.0644
HeLa Kyoto [4]; [5]
  thermal stability score: 0.904
HeLa Kyoto [4]; cell cycle stage: mitosis
  thermal stability score: -0.296

## AHCTF1
HeLa Kyoto [1]
  solubility in G1/S (log2): -1.38
HeLa Kyoto [2]; cell cycle stage: G1/S
  melting temperature: 50.7 °C
HeLa Kyoto [2]; cell cycle stage: mitosis
  melting temperature: 50.5 °C
HeLa Kyoto [3]
  solubility change mitosis (log2): 1.06
HeLa Kyoto [4]; [5]
  thermal stability score: -1.63
HeLa Kyoto [4]; cell cycle stage: mitosis
  thermal stability score: -0.353

## MAKTVAYFYDPDVGNFHYGAGHPMKPHRLALTHSLVLHYGLYKKMIVFKPYQASQHDMCRFHSEDYIDFLQRVSPTNMQGFTKSLNAFNVGDDCPVFPGLFEFCSRYTGASLQGATQLNNKICDIAINWAGGLHHAKKFEASGFCYVNDIVIGILELLKYHPRVLYIDIDIHHGDGVQEAFYLTDRVMTVSFHKYGNYFFPGTGDMYEVGAESGRYYCLNVPLRDGIDDQSYKHLFQPVINQVVDFYQPTCIVLQCGADSLGCDRLGCFNLSIRGHGECVEYVKSFNIPLLVLGGGGYTVRNVARCWTYETSLLVEEAISEELPYSEYFEYFAPDFTLHPDVSTRIENQNSRQYLDQIRQTIFENLKMLNHAPSVQIHDVPADLLTYDRTDEADAEERGPEENYSRPEAPNEFYDGDHDNDKESDVEI [HDAC3]
HeLa Kyoto [1]
  solubility in G1/S (log2): -0.055
HeLa Kyoto [2]; cell cycle stage: mitosis
  melting temperature: 52.6 °C
HeLa Kyoto [3]
  solubility change mitosis (log2): -0.161
HeLa Kyoto [4]; [5]
  thermal stability score: 1.43
HeLa Kyoto [4]; cell cycle stage: mitosis
  thermal stability score: 1.96

## MDEEYDVIVLGTGLTECILSGIMSVNGKKVLHMDRNPYYGGESSSITPLEELYKRFQLLEGPPESMGRGRDWNVDLIPKFLMANGQLVKMLLYTEVTRYLDFKVVEGSFVYKGGKIYKVPSTETEALASNLMGMFEKRRFRKFLVFVANFDENDPKTFEGVDPQTTSMRDVYRKFDLGQDVIDFTGHALALYRTDDYLDQPCLETVNRIKLYSESLARYGKSPYLYPLYGLGELPQGFARLSAIYGGTYMLNKPVDDIIMENGKVVGVKSEGEVARCKQLICDPSYIPDRVRKAGQVIRIICILSHPIKNTNDANSCQIIIPQNQVNRKSDIYVCMISYAHNVAAQGKYIAIASTTVETTDPEKEVEPALELLEPIDQKFVAISDLYEPIDDGCESQVFCSCSYDATTHFETTCNDIKDIYKRMAGTAFDFENMKRKQNDVFGEAEQ [GDI1]
HeLa Kyoto [1]
  solubility in G1/S (log2): 0.0264
HeLa Kyoto [2]; cell cycle stage: G1/S
  melting temperature: 54.2 °C
HeLa Kyoto [2]; cell cycle stage: mitosis
  melting temperature: 53.8 °C
HeLa Kyoto [3]
  solubility change mitosis (log2): -0.152
HeLa Kyoto [4]; [5]
  thermal stability score: -0.651
HeLa Kyoto [4]; cell cycle stage: mitosis
  thermal stability score: -1.41

## PACS1
HeLa Kyoto [1]
  solubility in G1/S (log2): 0.119
HeLa Kyoto [2]; cell cycle stage: G1/S
  melting temperature: 50.8 °C
HeLa Kyoto [2]; cell cycle stage: mitosis
  melting temperature: 51.4 °C
HeLa Kyoto [3]
  solubility change mitosis (log2): -0.211
HeLa Kyoto [4]; [5]
  thermal stability score: -0.425
HeLa Kyoto [4]; cell cycle stage: mitosis
  thermal stability score: 0.437

## EPRS
HeLa Kyoto [1]
  solubility in G1/S (log2): -0.115
HeLa Kyoto [2]; cell cycle stage: G1/S
  melting temperature: 48.6 °C
HeLa Kyoto [2]; cell cycle stage: mitosis
  melting temperature: 49 °C
HeLa Kyoto [3]
  solubility change mitosis (log2): -0.127
HeLa Kyoto [4]; [5]
  thermal stability score: -0.525
HeLa Kyoto [4]; cell cycle stage: mitosis
  thermal stability score: 2.58

Source: the supplement of paper PMC5998384
